# According to US20220008570A1:
# Molecular target: human CD33 (human) (UniProt P20138)
# Test: cell-based or functional assay
# UniProt P20138, sequence (P20138 18-364 limits assumed): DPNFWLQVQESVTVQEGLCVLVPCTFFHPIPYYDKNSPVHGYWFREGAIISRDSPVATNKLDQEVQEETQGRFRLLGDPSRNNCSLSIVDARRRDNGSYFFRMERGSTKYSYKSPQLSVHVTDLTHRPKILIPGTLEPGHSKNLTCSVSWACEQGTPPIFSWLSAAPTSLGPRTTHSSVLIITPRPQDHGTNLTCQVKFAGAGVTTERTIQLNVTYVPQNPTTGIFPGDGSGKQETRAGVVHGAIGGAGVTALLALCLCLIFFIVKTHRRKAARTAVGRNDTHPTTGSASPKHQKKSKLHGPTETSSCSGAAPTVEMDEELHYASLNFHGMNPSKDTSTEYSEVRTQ
substance,measurement,value
Lintuzumab conjugated with Actinium-225 (Ac225) (antibody),"LD50 (dose at which 50% of the cells were killed), cytotoxicity on HL60 leukemia cell suspensions",8 pCi per mL
